For this assay, the target named is ADAM17 (UniProt P78536). Kind of assay: BLI (Octet Red96, 25 C), antibody captured on anti-human Fab-CH1 (FAB2G) biosensor, antigen in solution. On the technique in general: Biolayer interferometry detects binding as a change in optical thickness at a sensor tip.

Residue numbers refer to the chain shown, from its start.

B1: D5.P2.B3 (Fab, V domains shown)
VH: QVQLQQSGAEVKKPGASVKVSCKASGYTFTGYYMHWVRQAPGQGLEWMGWINGNSGGTNYAQKFQGRVTMTRDTSISTAYMELSRLKSDNTAVYYCASSGSMDVWGQGTLVTVSS
VL: QSVVTQPPSVSGAPGQRVTISCSGSSSNVGRNLVYWYQQLPGAAPRLLIYRNNQRPSGVPDRFSGSKSGTSASLAISGLRSEDEADYYCAAWDDSLSGVVFGGGTKLTVLG
B1: the Kd was 4.9 nM, the off-rate constant (koff) worked out at 0.0012 s⁻¹ and the kon is 240000 M⁻¹ s⁻¹.

B2: D5.P1.A4 (Fab, V domains shown)
VH: B1 VH with N54K, N90D, S98R, S99L, G100D, S101R, M102R, V104Y
VL: B1 VL
Regarding B2, the Kd was found to be 5.3 nM, the dissociation rate constant (koff) worked out at 0.0023 s⁻¹ and the kon worked out at 430000 M⁻¹ s⁻¹.

As usually defined, the Kd is the equilibrium constant for the complex coming apart. Low readings indicate a tighter complex, high ones a looser complex. As a reminder, the koff is the first-order rate constant of dissociation. Higher therefore signals a short-lived complex. Usually kon stands for the rate constant with which the complex forms. A lower kon goes with slower complex formation.

Values taken from patent US20230159653A1.
